Experimental findings from article PMC9228767, “Structural and Functional Characterization of the Holliday Junction Resolvase RuvC from Deinococcus radiodurans” (Microorganisms, 2022) are described below.

The target of data set [1] is T1, DrRuvC (Deinococcus radiodurans, UniProt Q9RX75 1-179).
T1 sequence: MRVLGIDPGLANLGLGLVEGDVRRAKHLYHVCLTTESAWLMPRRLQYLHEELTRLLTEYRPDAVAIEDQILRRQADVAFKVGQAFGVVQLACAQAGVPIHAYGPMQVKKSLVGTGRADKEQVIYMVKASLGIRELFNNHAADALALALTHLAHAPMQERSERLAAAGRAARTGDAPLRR
Description: EMSA; 1 mM EDTA; 0-500 nM protein; no significant difference from HJ-0X; 50 mM Tris-HCl pH 7.0, 100 mM NaCl, 1 mM EDTA, 1% glycerol, 50 nM 5'-FAM DNA, on ice 30 min, 5% native PAGE. To be noted: protein: recombinant; tags: N-terminal 6xHis (pET28a NdeI/BamHI); chain copies: 2; label: 5'-FAM on one strand; four-way junction, 12 bp homologous mobile core, 4 strands.

Data set [2] concerns the molecule itself. Description: SEC; Superdex 75 10/300 GL column, recombinant DrRuvC; 4 °C; buffers in Supplementary Table S1. Background: SEC sorts molecules by how far they enter the pores of the column.
Data set [3] has as its target T1, DrRuvC. Description: EMSA; 1 mM EDTA; 0-500 nM protein; 50 mM Tris-HCl pH 7.0, 100 mM NaCl, 1 mM EDTA, 1% glycerol, 50 nM 5'-FAM DNA, on ice 30 min, 5% native PAGE. To be noted: protein: recombinant; tags: N-terminal 6xHis (pET28a NdeI/BamHI); chain copies: 2; label: 5'-FAM on one strand; four-way junction, non-homologous core, immobile, 4 strands. On the technique in general: A gel shift assay detects complexes by their altered migration in electrophoresis.

Data set [4] addresses T1, DrRuvC. Description: EMSA; no stable shift up to 500 nM protein; 50 mM Tris-HCl pH 7.0, 100 mM NaCl, 1 mM EDTA, 1% glycerol, 50 nM 5'-FAM DNA, on ice 30 min, 5% native PAGE. To be noted: protein: recombinant, tags: N-terminal 6xHis (pET28a NdeI/BamHI), chain copies: 2, label: 5'-FAM on one strand.

B1: HJ-12X (structured_DNA)
DNA 1: GACGCTGCCGAATTCTGGCTTGCTAGGACATCTTTGCCCACGTTGACCCA
DNA 2: TGGGTCAACGTGGGCAAAGATGTCCTAGCAATGTAATCGTCTATGACGTT
DNA 3: AACGTCATAGACGATTACATTGCTAGGACATGCTGTCTAGAGACTATCGA
DNA 4: TCGATAGTCTCTAGACAGCATGTCCTAGCAAGCCAGAATTCGGCAGCGTC
Regarding B1, the binding result with DrRuvC [1] is “binds”.

B2: RuvC from Deinococcus radiodurans (DrRuvC), full-length (enzyme, UniProt Q9RX75 1-179, looked up)
chain: MRVLGIDPGLANLGLGLVEGDVRRAKHLYHVCLTTESAWLMPRRLQYLHEELTRLLTEYRPDAVAIEDQILRRQADVAFKVGQAFGVVQLACAQAGVPIHAYGPMQVKKSLVGTGRADKEQVIYMVKASLGIRELFNNHAADALALALTHLAHAPMQERSERLAAAGRAARTGDAPLRR
notes: Holliday junction resolvase RuvC (DR_0440) of Deinococcus radiodurans, full length; has a C-terminal tail (residues 163-179); residues 1-154 of each monomer are seen in the crystal structure; Cloned into pET28a between NdeI and BamHI; the His tag is said to be on the protein used for crystallisation; also called DR_0440; source: E. coli BL21 (DE3), purified (nickel, desalting, Heparin ion …)
By stoichiometry N is commonly meant the number of molecules, sites or subunits per partner or assembly. As for B2, the “stoichiometry N” value in data set [2] turned out to be 2.

B3: HJ-0X (structured_DNA)
DNA 1: CCACCAGAAACACGCCACAGTTTTTGTTTTGATTGCGAGGCCGTCCTACC
DNA 2: GGTAGGACGGCCTCGCAATCAAAACTTTTTGAGCACGCGAGATGTCAACG
DNA 3: CGTTGACATCTCGCGTGCTCAAAAAAAAAACAGATGCGGAGTGAAGTTCC
DNA 4: GGAACTTCACTCCGCATCTGTTTTTAAAAACTGTGGCGTGTTTCTGGTGG
For the molecule B3, the binding result with DrRuvC [3] is listed as “binds”.

B4: Y-junction (structured_DNA)
DNA 1: CCACCAGAAACACGCCACAGTTTTTGTTTTGATTGCGAGGCCGTCCTACC
DNA 2: GGTAGGACGGCCTCGCAATCAAAACTTTTTGAGCACGCGAGATGTCAACG
DNA 3: CGTTGACATCTCGCGTGCTCAAAAAAAAAACTGTGGCGTGTTTCTGGTGG
B4: the binding result with DrRuvC [4] (three-way junction, 3 strands) is listed as “no binding”.

B5: bulge (dsDNA)
DNA 1: CCACCAGAAACACGCCACAGTTTTTGTTTTGATTGCGAGGCCGTCCTACC
DNA 2: GGTAGGACGGCCTCGCAATCTTTTGTTTTTCTGTGGCGTGTTTCTGGTGG
Regarding B5, the binding result with DrRuvC [4] (internal unpaired bubble, blunt ends) is “no binding”.

B6: flap (structured_DNA)
DNA 1: CCACCAGAAACACGCCACAGTTTTTGTTTTGATTGCGAGGCCGTCCTACC
DNA 2: GGTAGGACGGCCTCGCAATCAAAACTTTTTGAGCACGCGAGATGTCAACG
DNA 3: CGTTGACATCTCGCGTGCTCAAAAA
For the molecule B6, the binding result with DrRuvC [4] (flap, 3 strands: S1 3' half with S4 5' half, S4 3' half with S5) is “no binding”.

B7: duplex (dsDNA)
DNA 1: CCACCAGAAACACGCCACAGTTTTTGTTTTGATTGCGAGGCCGTCCTACC
DNA 2: GGTAGGACGGCCTCGCAATCAAAACAAAAACTGTGGCGTGTTTCTGGTGG
With B7, the binding result with DrRuvC [4] (blunt) is “no binding”.
